US12139520B2 (priority 2020, dated 2024)
Numbered stars: 1 amine (or outer) side, 2 acyl side, 3 side chain; on linkers, the order of the positions; unused ones are H or OH. Bridge positions count the residues as written; N and C are the ends. Square brackets hold non-standard residues; d marks the D form. Side chains are listed from the residue outwards. Ends that are not written are not given here. * marks the point of attachment. C20 diacid = O=C(O)CCCCCCCCCCCCCCCCCCC(=O)*; γGlu = O=C(O)[C@H](CCC(=O)[*:2])N[*:1]; Hyp = O=C(O)[C@@H]1C[C@@H](O)CN1; Trx = NC[C@H]1CC[C@H](C(=O)O)CC1; AEEA = NCCOCCOCC(=O)O; Aib = CC(C)(N)C(=O)O

Key:
hAMY3R = target: T1, hAMY3R (human, UniProt P30988); assay: cell-based or functional assay
T1 sequence 1: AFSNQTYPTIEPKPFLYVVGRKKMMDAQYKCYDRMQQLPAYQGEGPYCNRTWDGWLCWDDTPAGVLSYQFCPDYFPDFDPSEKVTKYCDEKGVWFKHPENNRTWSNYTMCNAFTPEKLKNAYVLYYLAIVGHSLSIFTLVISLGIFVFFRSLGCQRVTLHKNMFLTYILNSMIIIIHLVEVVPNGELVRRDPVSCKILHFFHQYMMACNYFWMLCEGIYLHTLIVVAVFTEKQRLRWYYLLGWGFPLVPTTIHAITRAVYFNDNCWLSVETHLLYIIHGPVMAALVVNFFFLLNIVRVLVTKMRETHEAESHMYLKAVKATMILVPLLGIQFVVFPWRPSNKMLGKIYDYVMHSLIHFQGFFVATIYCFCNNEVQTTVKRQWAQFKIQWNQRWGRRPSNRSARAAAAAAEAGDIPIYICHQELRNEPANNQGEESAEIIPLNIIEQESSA
T1 sequence 2: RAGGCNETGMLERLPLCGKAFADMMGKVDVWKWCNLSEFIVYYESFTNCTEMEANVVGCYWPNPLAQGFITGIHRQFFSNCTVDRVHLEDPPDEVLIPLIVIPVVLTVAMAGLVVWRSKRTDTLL

hAM1R = hAM1R (human, UniProt Q16602); assay: cell-based or functional assay

{C20 diacid-γGlu}-KCNTATCTVQRLAHQIAQFADKDKDNVAPPTNVGSNG[Hyp]-NH2 (disulfide 2-7 (inferred); ends not checked) [SEQ ID NO: 105]
hAMY3R EC50 (cAMP) (hAMY3R): 0.018 nM | hAM1R EC50 (cAMP) (hAM1R): > 5000 nM

{C20 diacid-γGlu}-KCNTATCTVQRLAHQINQFTDKDKDNVAPPTNVGSNG[Hyp]-NH2 (disulfide 2-7 (inferred); ends not checked) [SEQ ID NO: 11]
hAMY3R EC50 (cAMP) (hAMY3R): 0.007 nM | hAM1R EC50 (cAMP) (hAM1R): > 5000 nM

{C20 diacid-γGlu}-KCNTATCTVQRLAEQIYQFTAKDKDNVAPPTNVGSNG[Hyp]-NH2 (disulfide 2-7 (inferred); ends not checked) [SEQ ID NO: 106]
hAMY3R EC50 (cAMP) (hAMY3R): 0.018 nM | hAM1R EC50 (cAMP) (hAM1R): > 5000 nM

{C20 diacid-γGlu}-KCNTATCTVARLAHQIAQFTDKDKDNVAPPTNVGSNG[Hyp]-NH2 (disulfide 2-7 (inferred); ends not checked) [SEQ ID NO: 107]
hAMY3R EC50 (cAMP) (hAMY3R): 0.019 nM | hAM1R EC50 (cAMP) (hAM1R): 647 nM

{C20 diacid-γGlu}-KCNTATCTVQRLAEQIYQFTDKDKANVAPPTNVGSNG[Hyp]-NH2 (disulfide 2-7 (inferred); ends not checked) [SEQ ID NO: 108]
hAMY3R EC50 (cAMP) (hAMY3R): 0.019 nM | hAM1R EC50 (cAMP) (hAM1R): > 5000 nM

GCRTGTCTVQRLAHQIYQFTDKDKDNVAPRTNVGPQGY [SEQ ID NO: 109]
hAMY3R EC50 (cAMP) (hAMY3R): 0.02 nM | hAM1R EC50 (cAMP) (hAM1R): 2980 nM

{C20 diacid-γGlu}-KCNTATCTVQRLAHQIEQFTDKDKDNVAPPTNVGSNG[Hyp]-NH2 (disulfide 2-7 (inferred); ends not checked) [SEQ ID NO: 110]
hAMY3R EC50 (cAMP) (hAMY3R): 0.02 nM | hAM1R EC50 (cAMP) (hAM1R): > 5000 nM

GCRFGTCTVQRLAHQIYQFTDKDKDNVAPRTKIGPQG[Hyp]-NH2 (disulfide 2-7 (inferred); ends not checked) [SEQ ID NO: 111]
hAMY3R EC50 (cAMP) (hAMY3R): 0.021 nM | hAM1R EC50 (cAMP) (hAM1R): 2980 nM

{C20 diacid-γGlu}-KCNTATCTVDRLAHQIAQFTDKDKDNVAPPTNVGSNG[Hyp]-NH2 (disulfide 2-7 (inferred); ends not checked) [SEQ ID NO: 112]
hAMY3R EC50 (cAMP) (hAMY3R): 0.021 nM | hAM1R EC50 (cAMP) (hAM1R): > 5000 nM

GCRFGTCTVQRLAHQIYQFTDKDKDNVAPRTKISPNG[Hyp]-NH2 (disulfide 2-7 (inferred); ends not checked) [SEQ ID NO: 113]
hAMY3R EC50 (cAMP) (hAMY3R): 0.022 nM | hAM1R EC50 (cAMP) (hAM1R): 2980 nM

KCNTATCTVQRLAHQIYQATDKDKDNVAPPTNVGSNG[Hyp]-NH2 (disulfide 2-7 (inferred); ends not checked) [SEQ ID NO: 114]
hAMY3R EC50 (cAMP) (hAMY3R): 0.022 nM | hAM1R EC50 (cAMP) (hAM1R): > 5000 nM

GCRTGTCTVQRLAHQIYQFTDKDKDNVAPRTKIGPNG[Hyp]-NH2 (disulfide 2-7 (inferred); ends not checked) [SEQ ID NO: 115]
hAMY3R EC50 (cAMP) (hAMY3R): 0.023 nM | hAM1R EC50 (cAMP) (hAM1R): 130 nM

KCNTATCTVQRLAEQIYQFTDKDKDNK([AEEA-AEEA-γGlu-C20 diacid])APPTNVGSNG[Hyp]-NH2 (disulfide 2-7 (inferred); ends not checked) [SEQ ID NO: 12]
hAMY3R EC50 (cAMP) (hAMY3R): 0.007 nM | hAM1R EC50 (cAMP) (hAM1R): > 5000 nM

GCRFGTCTVQRLAHQIYQFTDKDKDNVAPRTNVSPQGY [SEQ ID NO: 116]
hAMY3R EC50 (cAMP) (hAMY3R): 0.024 nM | hAM1R EC50 (cAMP) (hAM1R): 48.2 nM

GCRFGTCTVQRLAHFLYQFTDKDKDNVAPRTKVGSNGY [SEQ ID NO: 117]
hAMY3R EC50 (cAMP) (hAMY3R): 0.024 nM | hAM1R EC50 (cAMP) (hAM1R): 51.6 nM

GCRTGTCTVQRLAHQIYQFTDKDKDNVAPRTNIGPQG[Hyp]-NH2 (disulfide 2-7 (inferred); ends not checked) [SEQ ID NO: 118]
hAMY3R EC50 (cAMP) (hAMY3R): 0.024 nM | hAM1R EC50 (cAMP) (hAM1R): 2980 nM

{C20 diacid-γGlu}-KCNT[Aib]TCTVQRLAHQIYQFTDKDKDNVAPPTNVGSNG[Hyp]-NH2 (disulfide 2-7 (inferred); ends not checked) [SEQ ID NO: 119]
hAMY3R EC50 (cAMP) (hAMY3R): 0.024 nM | hAM1R EC50 (cAMP) (hAM1R): > 5000 nM

{C20 diacid-γGlu}-KCNTATCTVQRLAHQIAQFTDKDKDPVAPPTNVGSNS[Hyp]-NH2 (disulfide 2-7 (inferred); ends not checked) [SEQ ID NO: 120]
hAMY3R EC50 (cAMP) (hAMY3R): 0.025 nM | hAM1R EC50 (cAMP) (hAM1R): > 5000 nM

GCRTGTCTVQRLAHQIYQFTDKDKDNVAPRSNVGPQG[Hyp]-NH2 (disulfide 2-7 (inferred); ends not checked) [SEQ ID NO: 121]
hAMY3R EC50 (cAMP) (hAMY3R): 0.026 nM | hAM1R EC50 (cAMP) (hAM1R): 2980 nM

{C20 diacid-γGlu}-KCNTATCTVQRLAEQIYQFTDKAKDNVAPPTNVGSNG[Hyp]-NH2 (disulfide 2-7 (inferred); ends not checked) [SEQ ID NO: 122]
hAMY3R EC50 (cAMP) (hAMY3R): 0.026 nM | hAM1R EC50 (cAMP) (hAM1R): > 5000 nM

GCRFGTCTVQRLAHFLYQFTDKDGAIAPRTKIGSQGY [SEQ ID NO: 123]
hAMY3R EC50 (cAMP) (hAMY3R): 0.027 nM | hAM1R EC50 (cAMP) (hAM1R): 31.7 nM

GCRFGTCTVQRLAHQIYQFTDKDKDNVAPRTKIGPNG[Hyp]-NH2 (disulfide 2-7 (inferred); ends not checked) [SEQ ID NO: 124]
hAMY3R EC50 (cAMP) (hAMY3R): 0.027 nM | hAM1R EC50 (cAMP) (hAM1R): 34.8 nM

GCRFGTCTVQRLAHQIYQFTDKDKDNVAPRTNVSPQG[Hyp]-NH2 (disulfide 2-7 (inferred); ends not checked) [SEQ ID NO: 125]
hAMY3R EC50 (cAMP) (hAMY3R): 0.027 nM | hAM1R EC50 (cAMP) (hAM1R): 2980 nM

KCNTATCTVQRLAHAIYQFTDKDKDNVAPPTNVGSNG[Hyp]-NH2 (disulfide 2-7 (inferred); ends not checked) [SEQ ID NO: 13]
hAMY3R EC50 (cAMP) (hAMY3R): 0.007 nM | hAM1R EC50 (cAMP) (hAM1R): > 5000 nM

{C20 diacid-Trx-γGlu-AEEA-AEEA}-KCNTATCTVQRLAEQIYQFTDKDKDNVAPPTNVGSNG[Hyp]-NH2 (disulfide 2-7 (inferred); ends not checked) [SEQ ID NO: 126]
hAMY3R EC50 (cAMP) (hAMY3R): 0.027 nM | hAM1R EC50 (cAMP) (hAM1R): > 5000 nM

GCRFGTCTVQRLAHQIYQFTDKDKDNVAPRSKIGPQG[Hyp]-NH2 (disulfide 2-7 (inferred); ends not checked) [SEQ ID NO: 127]
hAMY3R EC50 (cAMP) (hAMY3R): 0.028 nM | hAM1R EC50 (cAMP) (hAM1R): 107 nM

KCNTATCATQRLANFLVHSSNNFGAIAPSTKIGPNGY [SEQ ID NO: 128]
hAMY3R EC50 (cAMP) (hAMY3R): 0.028 nM | hAM1R EC50 (cAMP) (hAM1R): 130 nM

GCRTGTCTVQRLAHQIYQFTDKDKDNVAPRSKVGPQGY [SEQ ID NO: 129]
hAMY3R EC50 (cAMP) (hAMY3R): 0.029 nM | hAM1R EC50 (cAMP) (hAM1R): 367 nM

{C20 diacid-γGlu}-KCNTATCTVDRLAHQIAQFTDKDKDPVAPPTNVGSNG[Hyp]-NH2 (disulfide 2-7 (inferred); ends not checked) [SEQ ID NO: 130]
hAMY3R EC50 (cAMP) (hAMY3R): 0.03 nM | hAM1R EC50 (cAMP) (hAM1R): > 5000 nM

GCRFGTCTVQRLAHQIYQFTDKDKDNVAPRSNVSPQGY [SEQ ID NO: 131]
hAMY3R EC50 (cAMP) (hAMY3R): 0.031 nM | hAM1R EC50 (cAMP) (hAM1R): 33.8 nM

GCRFGTCTVQRLAHQIYQFTDKDKDNVAPRTKVSPQG[Hyp]-NH2 (disulfide 2-7 (inferred); ends not checked) [SEQ ID NO: 132]
hAMY3R EC50 (cAMP) (hAMY3R): 0.031 nM | hAM1R EC50 (cAMP) (hAM1R): 2980 nM

{C20 diacid-γGlu}-KCNTATCTVARLAEQIYQFTDKDKDPVAPPTNVGSNG[Hyp]-NH2 (disulfide 2-7 (inferred); ends not checked) [SEQ ID NO: 133]
hAMY3R EC50 (cAMP) (hAMY3R): 0.031 nM | hAM1R EC50 (cAMP) (hAM1R): > 5000 nM

GCRFGTCTVQRLAHQIYQFTDKDKDNVAPRTKVSPNG[Hyp]-NH2 (disulfide 2-7 (inferred); ends not checked) [SEQ ID NO: 134]
hAMY3R EC50 (cAMP) (hAMY3R): 0.032 nM | hAM1R EC50 (cAMP) (hAM1R): 2980 nM
